Measurements from US10703784B2, “Antigens and epitopes derived from Mycobacterium tuberculosis” (priority 2011, dated 2020).

Test system: PBMCs from LTBI donors (IFN-γ production)
Assay type: cell-based, human
Conditions: ex vivo IFN-γ ELISPOT; for Resp. freq.: fraction of 28 LTBI donors responding to epitopes of the antigen; for Total SFC: total spot-forming cells, LTBI donors

| Molecule | Resp. freq. [%] | Total SFC [SFC] |
| --- | --- | --- |
| Rv0293c: MTB protein, novel CD4 T cell antigen; Conserved hypotheticals, Island 1 (protein, listed as Mycobacterium tuberculosis) MSGTFTADAIGPPVPIPDVPGADAGAEGLPSRSVLSARQRILVESSAIADVALRTAVASVLSATVTPAVVANALRHVNEGSERSNLNFYAELAAAHDPAKSFPAPTELPKVTSRPASPLTEWVARGTVDNIAFASGFRAINPTMRQRWSALTANNIVHAQHWRHRDGPRPTLCVIHGFMGSSYLLNGLFFSLPWYYRSGYDVLLYTLPFHGQRAEKFSPFSGFGYFTSGLSGFAEAMAQAVYDFRSIVDYLRHIGVDRIALTGISLGGYTSALLASVESRLEAVIPNCPVVMPAKLFDEWFPANKLVKLGLRLTNISRDELIAGLAYHGPLNYRPLLPKDRRMIITGLGDRMAPPEHAVTLWKQWDRCALHWFPGSHLLHVSQLDYLRRMTVFLQGLMFD | 14 | 1073 |
| Rv0292: MTB protein, novel CD4 T cell antigen; Cell wall and cell processes, Island 1, Esx-3 (protein, listed as Mycobacterium tuberculosis) MNPIPSWPGRGRVTLVLLAVVPVALAYPWQSTRDYVLLGVAAAVVIGLFGFWRGLYFTTIARRGLAILRRRRRIAEPATCTRTTVLVWVGPPASDTNVLPLTLIARYLDRYGIRADTIRITSRVTASGDCRTWVGLTVVADDNLAALQARSARIPLQETAQVAARRLADHLREIGWEAGTAAPDEIPALVAADSRETWRGMRHTDSDYVAAYRVSANAELPDTLPAIRSRPAQETWIALEIAYAAGSSTRYTVAAACALRTDWRPGGTAPVAGLLPQHGNHVPALTALDPRSTRRLDGHTDAPADLLTRLHWPTPTAGAHRAPLTNAVSRT | 14 | 708 |
| Rv0124: MTB protein, novel CD4 T cell antigen; PE/PPE (protein, listed as Mycobacterium tuberculosis) MSFVSVAPEIVVAAATDLAGIGSAISAANAAAAAPTTAVLAAGADEVSAAIAALSGHAQAYQALSAQAAAFHQQFVQTLAGGAGAYAAAEAQVEQQLLAAINAPTQALLGRPLIGNGADGAPGTGQAGGAGGILYGNGGNGGSGAAGQAGGAGGPAGLIGHGGSGGAGGSGAAGGAGGHGGWLWGNGGVGGSGGAGVGAGVAGGHGGAGGAAGLWGAGGGGGNGGNGADANIVSGGDGGLGGAGGGGGWLYGDGGAGGHGGQGAIGLGGGAGGDGGQGGAGRGLWGTGGAGGHGGQGGGTGGPPLPGQAGMGAAGGAGGLIGNGGAGGDGGVGASGGVAGVGGAGGNAMLIGHGGAGGAGGDSSFANGAAGGAGGAGGHLFGNGGSGGHGGAVTAGNTGIGGAGGVGGDARLIGHGGAGGAGGDRAGALVGRDGGPGGNGGAGGQLYGNGGDGAPGTGGTLQAAVSGLVTALFGAPGQPGDTGQPG | 14 | 177 |
| Rv3012c: MTB protein, novel CD4 T cell antigen; Information pathways (protein, listed as Mycobacterium tuberculosis) MSQISRDEVAHLARLARLALTETELDSFAGQLDAILTHVSQIQAVDVTGVQATDNPLKDVNVTRPDETVPCLTQRQVLDQAPDAVDGRFAVPQILGDEQ | 14 | 233 |
| Rv0291: MTB protein, novel CD4 T cell antigen; Intermediary metabolism and respiration, Island 1 (protein, listed as Mycobacterium tuberculosis) MIRAAFACLAATVVVAGWWTPPAWAIGPPVVDAAAQPPSGDPGPVAPMEQRGACSVSGVIPGTDAGVPTPSQTMLNLPAAWQFSRGEGQLVAIIDTGVQPGPRLPNVDAGGDFVESTDGLTDCDGHGTLVAGIVAGQPGNDGFSGVAPAARLLSIRAMSTKFSPRTSGGDPQLAQATLDVAVLAGAIVHAADLGAKVINVSTITCLPADRMVDQAALGAAIRYAAVDKDAVIVAAAGNTGASGSVSASCDSNPLTDLSRPDDPRNWAGVTSVSIPSWWQPYVLSVASLTSAGQPSKFSMPGPWVGIAAPGENIASVSNSGDGALANGLPDAHQKLVALSGTSYAAGYVSGVAALVRSRYPGLNATEVVRRLTATAHRGARESSNIVGAGNLDAVAALTWQLPAEPGGGAAPAKPVADPPVPAPKDTTPRNVAFAGAAALSVLVGLTAATVAIARRRREPTE | 14 | 1153 |
| Rv3025c: MTB protein, novel CD4 T cell antigen; Intermediary metabolism and respiration, Island 2 (protein, listed as Mycobacterium tuberculosis) MAYLDHAATTPMHPAAIEAMAAVQRTIGNASSLHTSGRSARRRIEEARELIADKLGARPSEVIFTAGGTESDNLAVKGIYWARRDAEPHRRRIVTTEVEHHAVLDSVNWLVEHEGAHVTWLPTAADGSVSATALREALQSHDDVALVSVMWANNEVGTILPIAEMSVVAMEFGVPMHSDAIQAVGQLPLDFGASGLSAMSVAGHKFGGPPGVGALLLRRDVTCVPLMHGGGQERDIRSGTPDVASAVGMATAAQIAVDGLEENSARLRLLRDRLVEGVLAEIDDVCLNGADDPMRLAGNAHFTFRGCEGDALLMLLDANGIECSTGSACTAGVAQPSHVLIAMGVDAASARGSLRLSLGHTSVEADVDAALEVLPGAVARARRAALAAAGASR | 14 | 423 |
| Rv3135: MTB protein, novel CD4 T cell antigen; PE/PPE (protein, listed as Mycobacterium tuberculosis) MVLGFSWLPPEINSARMFAGAGSGPLFAAASAWEGLAADLWASASSFESVLAALTTGPWTGPASMSMAAAASPYVGWLSTVASQAQLAAIQARAAATAFEAALAATVHPTAVTANRVSLASLIAANVLGQNTPAIAATEFDYLEMWAQDVAAMVGYHAGAKSVAATLAPFSLPPVSLAGLAAQVGTQVAGMATTASAAVTPVVEGAMASVPTVMSGMQSLVSQLPLQHASMLFLPVRILTSPITTLASMARESATRLGPPAGGLAAANTPNPSGAAIPAFKPLGGRELGAGMSAGLGQAQLVGSMSVPPTWQGSIPISMASSAMSGLGVPPNPVALTQAAGAAGGGMPMMLMPMSISGAGAGMPGGLMDRDGAGWHVTQARLTVIPRTGVG | 18 | 317 |
| Rv0299: MTB protein, novel CD4 T cell antigen; Conserved hypotheticals (protein, listed as Mycobacterium tuberculosis) MIAPGDIAPRRDSEHELYVAVLSNALHRAADTGRVITCPFIPGRVPEDLLAMVVAVEQPNGTLLPELVQWLHVAALGAPLGNAGVAALREAASVVTALLC | 14 | 467 |
| Rv2874: MTB protein, novel CD4 T cell antigen; Intermediary metabolism and respiration (protein, listed as Mycobacterium tuberculosis) MVESRRAAAAASAYASRCGIAPATSQRSLATPPTISVPSGEGRCRCHVARGAGRDPRRRLRRRRWCGRCGYHSHLTGGEFDVNRLCQQRSRERSCQLVAVPADPRPKRQRITDVLTLALVGFLGGLITGISPCILPVLPVIFFSGAQSVDAAQVAKPEGAVAVRRKRALSATLRPYRVIGGLVLSFGMVTLLGSALLSVLHLPQDAIRWAALVALVAIGAGLIFPRFEQLLEKPFSRIPQKQIVTRSNGFGLGLALGVLYVPCAGPILAAIVVAGATATIGLGTVVLTATFALGAALPLLFFALAGQRIAERVGAFRRRQREIRIATGSVTILLAVALVFDLPAALQRAIPDYTASLQQQISTGTEIREQLNLGGIVNAQNAQLSNCSDGAAQLESCGTAPDLKGITGWLNTPGNKPIDLKSLRGKVVLIDFWAYSCINCQRAIPHVVGWYQAYKDSGLAVIGVHTPEYAFEKVPGNVAKGAANLGISYPIALDNNYATWTNYRNRYWPAEYLIDATGTVRHIKFGEGDYNVTETLVRQLLNDAKPGVKLPQPSSTTTPDLTPRAALTPETYFGVGKVVNYGGGGAYDEGSAVFDYPPSLAANSFALRGRWALDYQGATSDGNDAAIKLNYHAKDVYIVVGGTGTLTVVRDGKPATLPISGPPTTHQVVAGYRLASETLEVRPSKGLQVFSFTYG | 18 | 798 |
| Rv3876: MTB protein, novel CD4 T cell antigen; Cell wall and cell processes, Island 3, Esx-1 (protein, listed as Mycobacterium tuberculosis) MAADYDKLFRPHEGMEAPDDMAAQPFFDPSASFPPAPASANLPKPNGQTPPPTSDDLSERFVSAPPPPPPPPPPPPPTPMPIAAGEPPSPEPAASKPPTPPMPIAGPEPAPPKPPTPPMPIAGPEPAPPKPPTPPMPIAGPAPTPTESQLAPPRPPTPQTPTGAPQQPESPAPHVPSHGPHQPRRTAPAPPWAKMPIGEPPPAPSRPSASPAEPPTRPAPQHSRRARRGHRYRTDTERNVGKVATGPSIQARLRAEEASGAQLAPGTEPSPAPLGQPRSYLAPPTRPAPTEPPPSPSPQRNSGRRAERRVHPDLAAQHAAAQPDSITAATTGGRRRKRAAPDLDATQKSLRPAAKGPKVKKVKPQKPKATKPPKVVSQRGWRHWVHALTRINLGLSPDEKYELDLHARVRRNPRGSYQIAVVGLKGGAGKTTLTAALGSTLAQVRADRILALDADPGAGNLADRVGRQSGATIADVLAEKELSHYNDIRAHTSVNAVNLEVLPAPEYSSAQRALSDADWHFIADPASRFYNLVLADCGAGFFDPLTRGVLSTVSGVVVVASVSIDGAQQASVALDWLRNNGYQDLASRACVVINHIMPGEPNVAVKDLVRHFEQQVQPGRVVVMPWDRHIAAGTEISLDLLDPIYKRKVLELAAALSDDFERAGRR | 18 | 1323 |
| Rv0297: MTB protein, novel CD4 T cell antigen; PE/PPE (protein, listed as Mycobacterium tuberculosis) MSFVIAQPEMIAAAAGELASIRSAINAANAAAAAQTTGVMSAAADEVSTAVAALFSSHAQAYQAASAQAAAFHAQVVRTLTVDAGAYASAEAANAGPNMLAAVNAPAQALLGRPLIGNGANGAPGTGQAGGDGGLLFGNGGNGGSGAPGQAGGAGGAAGFFGNGGNGGDGGAGANGGAGGTAGWFFGFGGNGGAGGIGVAGINGGLGGAGGDGGNAGFFGNGGNGGMGGAGAAGVNAVNPGLATPVTPAANGGNGLNLVGVPGTAGGGADGANGSAIGQAGGAGGDGGNASTSGGIGIAQTGGAGGAGGAGGDGAPGGNGGNGGSVEHTGATGSSASGGNGATGGNGGVGAPGGAGGNGGHVSGGSVNTAGAGGKGGNGGTGGAGGPGGHGGSVLSGPVGDSGNGGAGGDGGAGVSATDIAGTGGRGGNGGHGGLWIGNGGDGGAGGVGGVGGAGAAGAIGGHGGDGGSVNTPIGGSEAGDGGKGGLGGDGGGRGIFGQFGAGGAGGAGGVGGAGGAGGTGGGGGNGGAIFNAGTPGAAGTGGDGGVGGTGAAGGKGGAGGSGGVNGATGADGAKGLDGATGGKGNNGNPG | 14 | 154 |
